Test results taken from article PMC5845931.

Tests used:
[1] = molecular target: PepTSt wild type, proton-dependent oligopeptide transporter from Streptococcus thermophilus (Streptococcus thermophilus) (UniProt Q5M4H8); assay: MST; label-free (intrinsic tryptophan fluorescence of PepTSt); 125 nM PepTSt constant, peptide titrated up to the millimolar range; 22°C; pH 7.5, 100 mM Tris-HCl, 150 mM NaCl, 0.03% DDM
[2] = molecular target: PepTSt wild type, proton-dependent oligopeptide transporter from Streptococcus thermophilus (Streptococcus thermophilus) (UniProt Q5M4H8); assay: MST; label-free (intrinsic tryptophan fluorescence of PepTSt); 125 nM PepTSt constant, peptide titrated up to the millimolar range; 22°C; pH 7.5, 100 mM HEPES, 150 mM NaCl, 0.03% DDM
[3] = molecular target: PepTSt wild type, proton-dependent oligopeptide transporter from Streptococcus thermophilus (Streptococcus thermophilus) (UniProt Q5M4H8); assay: MST; label-free (intrinsic tryptophan fluorescence of PepTSt); 125 nM PepTSt constant, peptide titrated; 22°C; pH 4.5, 100 mM citrate, 150 mM NaCl, 0.03% DDM
[4] = molecular target: PepTSt wild type, proton-dependent oligopeptide transporter from Streptococcus thermophilus (Streptococcus thermophilus) (UniProt Q5M4H8); assay: MST; label-free (intrinsic tryptophan fluorescence of PepTSt); 125 nM PepTSt constant, peptide titrated; 22°C; pH 5.0, 100 mM citrate, 150 mM NaCl, 0.03% DDM
[5] = molecular target: PepTSt wild type, proton-dependent oligopeptide transporter from Streptococcus thermophilus (Streptococcus thermophilus) (UniProt Q5M4H8); assay: MST; label-free (intrinsic tryptophan fluorescence of PepTSt); 125 nM PepTSt constant, peptide titrated; 22°C; pH 5.5, 100 mM citrate, 150 mM NaCl, 0.03% DDM
[6] = molecular target: PepTSt wild type, proton-dependent oligopeptide transporter from Streptococcus thermophilus (Streptococcus thermophilus) (UniProt Q5M4H8); assay: MST; label-free (intrinsic tryptophan fluorescence of PepTSt); 125 nM PepTSt constant, peptide titrated up to the millimolar range; 22°C; pH 7.5, 100 mM NaPi, 150 mM NaCl, 0.03% DDM

Substance | Kd [1] [mM] | other results
Ala-Ala (peptide) | 8.59 | –
Ala-Asp (peptide) | > 100 | –
Ala-Gln (peptide) | 6.82 | –
Ala-Leu (peptide) | – | Kd [2]: 0.56 mM; Kd [3]: > 50 mM
Ala-Phe (peptide) | 0.95 | –
Asp-Glu (peptide) | > 50 | –
Leu-Ala (peptide) | 13.8 | Kd [2]: 13.3 mM; Kd [4]: 47 mM; Kd [5]: 23 mM; Kd [3]: > 100 mM; Kd [6]: 9.56 mM
Leu-Leu (peptide) | 3.56 | –
Phe-Ala (peptide) | 10.9 | –
